{"source": "paper PMC11316652", "target": "MSLN-Fc2 (Mesothelin-antibody Fc fusion protein) (human)", "assay": "SPR"}
{"substance": "Muc16 SEA10 module, uncleaved (with the Siderocalin fusion partner) (domain or fragment)", "values": [{"measurement": "Kd", "value": 899, "unit": "nM"}]}
{"substance": "Muc16 SEA11 module, uncleaved (with the Siderocalin fusion partner) (domain or fragment)", "values": [{"measurement": "Kd", "value": "> 10000", "unit": "nM"}]}
